Data: US20060147453A1

Molecular target: decorin
Experiment: cell-based or functional assay

Full length human WISP-1-Fc fusion protein (baculovirus, Sf9 insect cells) (from UniProt O95388 23-367)
HAS2 expression in NRK cells plated on the coated surface (real time RT-PCR): 3 fold
